According to patent US20240026407A1, “MODIFICATION OF SAPONINS” (GLAXOSMITHKLINE BIOLOGICALS SA, priority 2020, published 2024):

What was measured:
[1] = Example 8: screening of glucosidase variants for deglycosylation of saponins in crude bark extract (FIOP); format: biochemical, Quillaja saponaria; conditions: for Cumulative FIOP (cf WT): estimate; for FIOP: fold improvement over parent
Protocol: Libraries of genetic variants encoding mutations in the wild type Modestobacter marinus glucosidase (SEQ ID No. 262) were prepared using molecular biology techniques, enzymes were prepared linked to an N-terminally located His-tag. Single monoclonal colonies were grown in 400 ul of expression medium and protein expressed. Cell pellets were lysed in 200 ul of the relevant buffer (Table 16)
Lysate was diluted appropriately in the relevant buffer to allow a lysate loading of the indicated % loading (1% loading corresponds to use of 2 ul original lysate in a 200 ul reaction). In some experiments a rhamnosidase was also present during the screening reaction (and also in controls, negating any impact on results).
Crude bark extract (CBE) obtained by aqueous extraction of Quillaja saponaria and containing at least 2.80 mg/ml QS-21 (by HPLC-UV). The pH of CBE was adjusted to pH 6 by dropwise addition of 2M NaOH with stirring. The relevant concentration of the relevant glucosidase was added. The appropriate relative volume of pH 6 CBE (160 ul (for 80%) or 150 ul (for 75%)) was added to each well of the reaction plate. The reaction plate was sealed and incubated at the relevant temperature with shaking overnight for between 18 and 22 hours.
The reaction plate was quenched by adding 200 uL of MeCN (2% AcOH, 1 mg/mL hexanophenone) to each well of the plates. The quenched reaction plate was re-sealed and incubated at 20 deg C. with shaking for 10 min. The reaction plate was then centrifuged (10 min, 4 degC).
200 uL was transferred from each well of the quenched plate to the corresponding wells of a fresh 96 well plate and sealed. The plate was analysed by UV HPLC with the method below:
A negative control (a lysate not expressing test enzymes) and a positive control (expressing the parent comparator—wild type or previous variant as appropriate). Fold improvement over parent (FIOP) for the glucosidase (shorter method) is calculated as follows:
% right peak=100*right peak area/(right peak area+left peak area)
Average % right peak area is calculated for negative controls (per plate) and subtracted from all wells to give the increase in % right peak for each well above average negative control Average increase in % right peak is calculated for positive controls per plate
FIOP=observed increase in % right peak divided by average positive control increase

[2] = Example 10: deglucosylation of saponins in crude bark extract (50%) using WT and engineered glucosidases G1 to G5; format: biochemical, Quillaja saponaria; conditions: 7 h, 50% CBE, 35 degC; for % Right Peak: starting CBE 26; for % Left Peak: starting CBE 30; for % Middle Peak: starting CBE 44
Protocol: Lyophilised powders from clarified cell lysate expressing glucosidases (from Example 8 WT glucosidase and engineered glucosidase polypeptides G1 to G5) and rhamnosidases (from Example 9 WT rhamnosidase and engineered rhamnosidase polypeptides R1 to R5) were dissolved in 200 mM sodium acetate aqueous solution at pH 5.8 to prepare the enzyme solutions at 4 fold the final reaction concentration as shown in Tables 19 and 20.
Each glucosidase solution was combined with an equal volume of 200 mM sodium acetate aqueous solution at pH 5.8 and separately with an equal volume of 200 mM sodium acetate aqueous solution at pH 5.8 containing 2 mg/ml rhamnosidase R5. This is a sufficient loading of rhamnosidase to effect complete hydrolysis of the relevant rhamnose moiety within 4 hours.
CBE was adjusted to pH of 6.0 to 6.2 with 2M sodium hydroxide and an equal volume added to the enzyme solution to prepare the reaction mix (i.e. 50% CBE concentration in reaction mix) and the concentration of glucosidase and/or rhamnosidase is shown in Tables 19 and 20. The reaction mix was heated to 35 degC for the time indicated in Tables 19 and 20, after which the reaction was quenched by addition of an equal volume of MeCN containing 2% acetic acid and shaken at room temperature for 10 mins prior to centrifugation (10 min, 4 degC) to remove particulates. Samples were analysed by UV HPLC using method of Experiment 4-4.
The change in composition of the Left, Middle and Right peaks is shown in Tables 19 and 20. The composition changes by the action of the enzymes depending on the presence or absence of the partner enzyme. The extent of reaction is proportional to the enzyme concentration and the reaction time under these conditions. The tables show data for enzyme concentrations and the reaction times providing for equivalent extents of reaction. The improvement resulting from the mutations introduced for each variant is equal to the fold change in enzyme concentration×time (i.e. fold improvement=(enzyme concentration×time) for preceding variant÷(enzyme concentration×time) for later variant). A cumulative fold improvement over the original enzyme variant is calculated by the product of the individual fold improvements.

[3] = screen temp 35, pH 6, lysate loading 0.28%, CBE loading 75%, 100 mM Sodium acetate, Rham Present
[4] = glucosidase 0.39 mg/ml + rhamnosidase R5 0.5 mg/ml
[5] = glucosidase 0.39 mg/ml, no rhamnosidase
[6] = screen temp 35, pH 6, lysate loading 20%, CBE loading 80%, 100 mM Potassium phosphate, Rham None
[7] = glucosidase 6.25 mg/ml + rhamnosidase R5 0.5 mg/ml
[8] = glucosidase 6.25 mg/ml, no rhamnosidase

B1: Variant G4: engineered glucosidase polypeptide, variant of Modestobacter marinus glucosidase SEQ ID No. 262 (protein)
chain: MNPASSTRTDTMTDTTARTDSRLTDALAALSLEQKVQLLTGRDYWNTWPIEEIGLRRILVSDGPSGVRGEVWDERDPSLNLPSATALASAWDPDIARRYGAAAAVEARRKGVDVVLGPTINLHRSPLGGRHFEAFSEDPVLTAELAAAYVTGVQDNGVGATPKHYVANDFETDRFTVDVRADERTLRELYLLAFEKAVTEARAWLVMSAYNGINGATATENDLLETPLNSEWGFDGVVVSDWTAVRSLESARSSQDLVMPGPLGPWGDALVEAVRTGAIDESVVDRKVLRILTLAQRVGALEGSPAIDPVWVEDGVALAREAAVEGTVLLENRDELPWDATSLRKVAVIGNNAAAAMTQGGGSANVLPEYTVSPLDGVRAALPDAEVSYSLGAVVQDGLVELPLAELTNPVTGGPGLRARFLTADGAELFGEDRRKSVLVYQGGDAPIAAAATYELTARWTPTESQTVRLGFFCFGAAQLYVDGELLVESDLQPSGTDLGAAFMNPLTASAEVELVAGKPVDVRLVHDLSAKEGFAAHALILQLGTEPAEVDEDALIAEAAEAAEAADVVLVVVGTNSIVESEGYDRESLSLPGRQDDLVRAVVAANPRTVVLVNAGAPVLLPWRDDVAALLLGWFGGQEFGNAVADVLLGVAEPGGRLPTTWPAAEADVPVLSCTPVDGVVEYTEGIHIGYRAWLRSGATPAYWFGSGQGYTCVELTGVEAPSRARPGEIVTVSVEVANRGERDGKQVVQVYAEKPDSTVDRPVRWLVGSAPVRVPAGQTAQVEVAVPTRYLAHWAGGWQYEPGVYRLRVGTTAVELPLETTLEVSA
modifications: Seq ID No. 262 with mutations T365N, R357M, A473F, L474C, I475F, F44Y, F442Q, V263L, F541I
In the case of B1, the “Cumulative FIOP (cf WT)” value [1, 3] is reported as 300, the FIOP [1, 3] is reported as 2.4 and the “% change in Left Peak” value [2, 4] is reported as −28%. For the same molecule, the “% change in Middle Peak” value [2, 4] was −79%, the “% change in Right Peak” value [2, 4] was 267% and the “Cumulative Fold improvement in primary enzyme loading × time” value (shortened to “Cumulative Fold improvement”) [2, 4] was 128. For the same molecule, the “Fold improvement in primary enzyme loading × time” value [2, 4] was 2.0, the “% Right Peak” value [2, 4] was 69% and the “% Left Peak” value [2, 4] was 22%. The “% Middle Peak” value [2, 4] was 9%, the “% change in Left Peak” value [2, 5] was −22% and the “% change in Middle Peak” value [2, 5] was −49%. For the same molecule, the “% change in Right Peak” value [2, 5] was 208%, the “Cumulative Fold improvement” value [2, 5] was 128 and the “Fold improvement in primary enzyme loading × time” value [2, 5] was 2.0. For the same molecule, the “% Right Peak” value [2, 5] was 54%, the “% Left Peak” value [2, 5] was 23% and the “% Middle Peak” value [2, 5] was 23%.

B2: Variant G1: engineered glucosidase polypeptide, variant of Modestobacter marinus glucosidase SEQ ID No. 262 (protein)
chain: MNPASSTRTDTMTDTTARTDSRLTDALAALSLEQKVQLLTGRDFWNTWPIEEIGLRRILVSDGPSGVRGEVWDERDPSLNLPSATALASAWDPDIARRYGAAAAVEARRKGVDVVLGPTINLHRSPLGGRHFEAFSEDPVLTAELAAAYVTGVQDNGVGATPKHYVANDFETDRFTVDVRADERTLRELYLLAFEKAVTEARAWLVMSAYNGINGATATENDLLETPLNSEWGFDGVVVSDWTAVRSLESARSSQDLVMPGPVGPWGDALVEAVRTGAIDESVVDRKVLRILTLAQRVGALEGSPAIDPVWVEDGVALAREAAVEGTVLLENRDELPWDATSLRKVAVIGNNAAAARTQGGGSANVLPEYTVSPLDGVRAALPDAEVSYSLGAVVQDGLVELPLAELTNPVTGGPGLRARFLTADGAELFGEDRRKSVLVYFGGDAPIAAAATYELTARWTPTESQTVRLGFALIGAAQLYVDGELLVESDLQPSGTDLGAAFMNPLTASAEVELVAGKPVDVRLVHDLSAKEGFAAHALFLQLGTEPAEVDEDALIAEAAEAAEAADVVLVVVGTNSIVESEGYDRESLSLPGRQDDLVRAVVAANPRTVVLVNAGAPVLLPWRDDVAALLLGWFGGQEFGNAVADVLLGVAEPGGRLPTTWPAAEADVPVLSCTPVDGVVEYTEGIHIGYRAWLRSGATPAYWFGSGQGYTCVELTGVEAPSRARPGEIVTVSVEVANRGERDGKQVVQVYAEKPDSTVDRPVRWLVGSAPVRVPAGQTAQVEVAVPTRYLAHWAGGWQYEPGVYRLRVGTTAVELPLETTLEVSA
modifications: Seq ID No. 262 with mutation T365N
With B2 the “Cumulative FIOP (cf WT)” value [1, 6] was 5, the FIOP [1, 6] was 5 and the “% change in Left Peak” value [2, 7] was −39%. The “% change in Middle Peak” value [2, 7] was −64%, the “% change in Right Peak” value [2, 7] was 253% and the “Cumulative Fold improvement” value [2, 7] was 8. The “Fold improvement in primary enzyme loading × time” value [2, 7] was 8.0, the “% Right Peak” value [2, 7] was 66% and the “% Left Peak” value [2, 7] was 18%. The “% Middle Peak” value [2, 7] was 16%, the “% change in Left Peak” value [2, 8] was −8% and the “% change in Middle Peak” value [2, 8] was −59%. The “% change in Right Peak” value [2, 8] was 209%, the “Cumulative Fold improvement” value [2, 8] was 8 and the “Fold improvement in primary enzyme loading × time” value [2, 8] was 8.0. For the same molecule, the “% Right Peak” value [2, 8] was 54%, the “% Left Peak” value [2, 8] was 28% and the “% Middle Peak” value [2, 8] was 18%.
